Data on 80 substances can be found in US20260000597A1 (priority 2018, published 2026).

The test has as its target AchR (Homo sapiens, UniProt P02708). The test can be described thus: ELISA of screened peptide phages on AchR versus streptavidin (OD450). It is filed as binding. As to conditions: absorbance at 450 nm. The procedure: The output phages for the 4th and 5th rounds of biopanning in Example 13-1 were inoculated to E. coli, and plated on the agar plates so as to form 100-200 plaques per plate. The plaques were inoculated on 1 ml of an SB liquid medium containing 50 μg/ml of ampicillin by using a sterile tip, and cultured with shaking at 37° C. for 5 hours, followed by the addition of 30 μl of helper phages, and then cultured at 37° C. and 200 rpm for one day. The culture was centrifuged at 12,000 rpm for 2 minutes to collect supernatant, and 2% BSA was added to the supernatant, and used for phage screening.
In a 96-well ELISA plate, 5 μg/ml AchR or streptavidin was added at 50 μl per well, and left at 4° C. overnight. The next day, the solution in each well was discarded, followed by the addition of 2% BSA, and then blocked at room temperature for 2 hours. After the solution was all discarded, the wells were washed three times with Tris (20 mM, pH7). In addition, 100 μl of each of the phage solutions obtained from the above-prepared plaques was dispensed into wells and left at 30° C. for 1 hour. After the solution in the wells was all discarded, the wells were washed three times with Tris (20 mM, pH 7), and then the HRP-conjugated anti-M13 antibody diluted 1:2,000 was added at 100 μl per well, followed by culture at 30° C. for 1 hour. After the wells were washed three times with Tris (20 mM, pH7), 100 μl of tetramethylbenzidine was added to each well to induce a color development reaction, and then the reaction was stopped by the addition of 100 μl of 1M H2SO4, and the absorbance at 450 nm (OD450) was measured. The measured absorbance was converted into a ratio of AchR absorbance to streptavidin absorbance (AchR signal/streptavidin signal), and the results are shown in FIGS. 14 to 16.

[1] abbreviates: phage ELISA, 5 μg/ml AchR, 4th and 5th round biopanning phages.
Setting [2] is: ELISA of selected 11-mer (L2) peptide phages on AchR, Spep-2 positive control.
The mark [3] stands for this setting: ELISA of selected 14-mer (L3) peptide phages on AchR, Spep-2 positive control.

AchR, sequence (P02708 21-457): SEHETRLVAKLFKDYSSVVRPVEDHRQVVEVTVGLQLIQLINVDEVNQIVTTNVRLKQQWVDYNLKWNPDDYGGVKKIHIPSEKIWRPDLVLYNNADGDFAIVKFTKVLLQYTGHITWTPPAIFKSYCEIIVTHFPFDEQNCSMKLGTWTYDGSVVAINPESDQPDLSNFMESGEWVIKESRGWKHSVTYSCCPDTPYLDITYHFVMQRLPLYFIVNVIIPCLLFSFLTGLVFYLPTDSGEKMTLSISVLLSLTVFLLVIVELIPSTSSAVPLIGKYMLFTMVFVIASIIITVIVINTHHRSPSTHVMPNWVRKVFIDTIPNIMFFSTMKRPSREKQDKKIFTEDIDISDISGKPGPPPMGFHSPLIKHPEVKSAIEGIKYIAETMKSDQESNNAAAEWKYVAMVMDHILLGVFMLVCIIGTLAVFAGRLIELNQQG

In turn, KSRKWGWR [Peptide L1-39] gave an OD under setting [1] of 0.509.

Take RPKRSPSK [Peptide L1-117]: the OD under setting [1] stood at 0.508. The same measure, in the same setting: the figure for RWKRSEQR [Peptide L1-32] is 0.607.

Consider “L2-70 (QLLKMRKALSR; AchR binding peptide) [Peptide L2-70]”, for which the OD under setting [2] is 0.67. The substance “L3-19 (YMKKKRKSLLRTSL; AchR binding peptide) [Peptide L3-19]” had an OD under setting [3] of 0.796. “L2-58 (ANPKNRKDNLR; AchR binding peptide) [Peptide L2-58]”: under setting [2], the OD amounted to 0.701.

The substance “L3-191 (GINRGRKVSPKDEQ; AchR binding peptide) [Peptide L3-191]” came in with an OD under setting [3] of 0.739. “L2-71 (PYLRSKRFPPR; AchR binding peptide) [Peptide L2-71]”: under setting [2], the OD turned out to be 0.651.

Under setting [2], “L2-30 (PTLKWRKPVLR; AchR binding peptide) [Peptide L2-30]” yielded an OD of 0.746. In turn, KCKKDNDK [Peptide L1-184] registered an OD under setting [1] of 0.593.

The substance KIKRDLYK [Peptide L1-90] showed an OD under setting [1] of 0.439. Take “L3-11 (FMQKCKKWWDRAVF; AchR binding peptide) [Peptide L3-11]”: under setting [3], the OD was 0.8. In turn, KPKRDQSR [Peptide L1-113] returned an OD under setting [1] of 0.526. As to “L3-105 (YYEKIRRGEIKIAE; AchR binding peptide) [Peptide L3-105]”, the OD under setting [3] is listed as 0.601. The substance “L2-68 (GPDKSRRNLHR; AchR binding peptide) [Peptide L2-68]” registered an OD under setting [2] of 0.721. In the case of “L3-51 (NHHKTKRCSVRFNI; AchR binding peptide) [Peptide L3-51]”, the OD under setting [3] is listed as 0.754.

Under setting [3], “L3-40 (ASPKGRRPTFRPQH; AchR binding peptide) [Peptide L3-40]” came in with an OD of 0.733.

On to RGRKPIWK [Peptide L1-108], for which the OD under setting [1] stood at 0.535.

Take KIKKYYWK [Peptide L1-129]: the OD under setting [1] came to 0.421. In turn, KPKKPPAR [Peptide L1-84] returned an OD under setting [1] of 0.576. In the case of “L3-17 (VGPKFRKNHRRQNR; AchR binding peptide) [Peptide L3-17]”, under setting [3], the OD is listed as 0.812.

For the substance REKKYAYK [Peptide L1-181], the OD under setting [1] was found to be 0.589. Take “L3-192 (NGYRARKENLKFPE; AchR binding peptide) [Peptide L3-192]”: under setting [3], the OD came to 0.735. As to “L2-198 (DIYKGKRTLVK; AchR binding peptide) [Peptide L2-198]”, the OD under setting [2] is 0.718. In the case of KTRKQDHR [Peptide L1-172], under setting [1], the OD worked out at 0.631. In turn, “L2-83 (HQQKCKKTTTK; AchR binding peptide) [Peptide L2-83]” had an OD under setting [2] of 0.65. Take KMRKGWDK [Peptide L1-138]: the OD under setting [1] came to 0.373.

Take RGKRGCER [Peptide L1-54]: the OD under setting [1] was found to be 0.569. Same read-out and setting: the same measure for KMRKFYSK [Peptide L1-189]: 0.616; for RIRKITWR [Peptide L1-194]: 0.636. For KYKREEYR [Peptide L1-161], the OD under setting [1] is given as 0.474. On to “L2-41 (AEVKDKKAYYK; AchR binding peptide) [Peptide L2-41]”, for which the OD under setting [2] turned out to be 0.568.

In turn, “L3-108 (ESYRLRRGTDKEQW; AchR binding peptide) [Peptide L3-108]” had an OD under setting [3] of 0.621. RIKRDYCK [Peptide L1-164] registered an OD under setting [1] of 0.616. RPKKWMQK [Peptide L1-61]: the OD under setting [1] was 0.625.

The substance “L2-118 (FLRRLKKVHWK; AchR binding peptide) [Peptide L2-118]” showed an OD under setting [2] of 0.65.

Regarding “L2-84 (PWHKGKRDFDR; AchR binding peptide) [Peptide L2-84]”, under setting [2], the OD was determined as 0.574. RGKKPWWR [Peptide L1-104] displayed an OD under setting [1] of 0.46. Turning to “L2-98 (LMLRGKRLTTK; AchR binding peptide) [Peptide L2-98]”, under setting [2], the OD is listed as 0.626. The same measure, in the same setting: the figure for “L2-191 (PDSRLKKHEAK; AchR binding peptide) [Peptide L2-191]” is 0.689.

Substance “L3-174 (SSGKWKRPHAKYIV; AchR binding peptide) [Peptide L3-174]” registered an OD under setting [3] of 0.783.

The substance “L2-124 (NVVRGRRLECR; AchR binding peptide) [Peptide L2-124]” showed an OD under setting [2] of 0.556. Regarding KNKKCVGR [Peptide L1-88], the OD under setting [1] is recorded as 0.562. For “L3-112 (ALPRVRKDSHREEI; AchR binding peptide) [Peptide L3-112]”, the OD under setting [3] came to 0.731. With “L2-117 (DNGKIRRCLGK; AchR binding peptide) [Peptide L2-117]”, the OD under setting [2] worked out at 0.607. For “L3-193 (AAYRARKIVEKSGW; AchR binding peptide) [Peptide L3-193]”, the OD under setting [3] worked out at 0.755. For the substance REKRYMAR [Peptide L1-91], the OD under setting [1] is 0.826. As to RLKKHCGK [Peptide L1-187], the OD under setting [1] is reported as 0.668.

“L3-163 (PFTKMRKQFQRMSA; AchR binding peptide) [Peptide L3-163]” yielded an OD under setting [3] of 0.78. The same measure, in the same setting: the same measure for “L3-197 (QQIKYKRPTYRMVC; AchR binding peptide) [Peptide L3-197]”: 0.771; for “L3-146 (AVWRNRKDNVKASE; AchR binding peptide) [Peptide L3-146]”: 0.512. Substance RQRKSMQR [Peptide L1-27] showed an OD under setting [1] of 0.662.

For the substance “L3-81 (PTWRHRRYCAKDIG; AchR binding peptide) [Peptide L3-81]”, the OD under setting [3] worked out at 0.775. Still for that read-out and setting: the figure for “L3-190 (VHHKLRRVHLRLDV; AchR binding peptide) [Peptide L3-190]” is 0.792. The substance KYRRNLVR [Peptide L1-56] gave an OD under setting [1] of 0.468.

In the case of RPRRSLDR [Peptide L1-17], the OD under setting [1] stood at 0.653. Under setting [3], “L3-127 (WVDRSRKFEDRNCL; AchR binding peptide) [Peptide L3-127]” came in with an OD of 0.608. Take “L2-14 (GMWKVRKTVFR; AchR binding peptide) [Peptide L2-14]”: under setting [2], the OD is recorded as 0.746. Under setting [3], “L3-77 (VLIKQRKWQDRSCS; AchR binding peptide) [Peptide L3-77]” returned an OD of 0.688.

Regarding “L3-168 (MGLRARKYEDKTLH; AchR binding peptide) [Peptide L3-168]”, under setting [3], the OD worked out at 0.775.

Regarding KTKKLYEK [Peptide L1-25], the OD under setting [1] is reported as 0.709.

Substance “L2-126 (AMMKYKKEFPK; AchR binding peptide) [Peptide L2-126]” gave an OD under setting [2] of 0.605. On the same count and under the same terms, the figure for “L2-151 (TQCKDRRVSDR; AchR binding peptide) [Peptide L2-151]” is 0.749. As to KIKRNVFK [Peptide L1-160], the OD under setting [1] is 0.55. As for REKKQEVK [Peptide L1-150], the OD under setting [1] was 0.457. “L2-50 (SADRNKRHMTR; AchR binding peptide) [Peptide L2-50]”: the OD under setting [2] is listed as 0.656. Under setting [2], “L2-64 (SPFRAKRQDVR; AchR binding peptide) [Peptide L2-64]” came in with an OD of 0.683. Regarding “L3-66 (YISKSKKTAGRWFW; AchR binding peptide) [Peptide L3-66]”, the OD under setting [3] stood at 0.738.

Under setting [2], “L2-65 (PLWKTRKIEPR; AchR binding peptide) [Peptide L2-65]” registered an OD of 0.731. Under setting [1], KWRKRRIK [Peptide L1-46] returned an OD of 0.637. Substance “L2-125 (PADKGRREVMK; AchR binding peptide) [Peptide L2-125]” registered an OD under setting [2] of 0.481. Under setting [1], “GGRKKRRQRRR [Peptide L2-203, reference compound]” came in with an OD of 0.302. For the substance “L2-34 (VMDRDRKWWWR; AchR binding peptide) [Peptide L2-34]”, under setting [2], the OD was 0.604. “L2-93 (FNPKMRKVCLR; AchR binding peptide) [Peptide L2-93]” gave an OD under setting [2] of 0.635. In the case of “L2-62 (NLHKPKRDLPK; AchR binding peptide) [Peptide L2-62]”, the OD under setting [2] was 0.736.

Substance “L3-170 (CIFKFKKNMFKGYS; AchR binding peptide) [Peptide L3-170]” registered an OD under setting [3] of 0.768. For the substance “L2-87 (EWHKVRRVYAK; AchR binding peptide) [Peptide L2-87]”, the OD under setting [2] came to 0.716. As to KSKRPEGR [Peptide L1-122], the OD under setting [1] is recorded as 0.352. In turn, “L3-18 (EYQKCKKPSFRLTM; AchR binding peptide) [Peptide L3-18]” showed an OD under setting [3] of 0.806. Regarding “L2-150 (EDVRVKRQTCR; AchR binding peptide) [Peptide L2-150]”, the OD under setting [2] was 0.579.
